Experimental findings from paper PMC8102066 (2021) are described below.

The chains are these.
B1: HA-SNAP-mGluR3-C127A [modified: SNAP tag labelled with BG-LD555 (BG-LD655 in two-colour SiMPull); SNAP tag labelled with BG-LD555 (BG-LD655 in two-colour SiMPull)] [rat] / itself (parent complex)
chain: LGDHNFMRREIKIEGDLVLGGLFPINEKGTGTEECGRINEDRGIQRLEAMLFAIDEINKDNYLLPGVKLGVHILDTCSRDTYALEQSLEFVRASLTKVDEAEYMAPDGSYAIQENIPLLIAGVIGGSYSSVSIQVANLLRLFQIPQISYASTSAKLSDKSRYDYFARTVPPDFYQAKAMAEILRFFNWTYVSTVASEGDYGETGIEAFEQEARLRNICIATAEKVGRSNIRKSYDSVIRELLQKPNARVVVLFMRSDDSRELIAAANRVNASFTWVASDGWGAQESIVKGSEHVAYGAITLELASHPVRQFDRYFQSLNPYNNHRNPWFRDFWEQKFQCSLQNKRNHRQVCDKHLAIDSSNYEQESKIMFVVNAVYAMAHALHKMQRTLCPNTTKLCDAMKILDGKKLYKEYLLKINFTAPFNPNKGADSIVKFDTFGDGMGRYNVFNLQQTGGKYSYLKVGHWAETLSLDVDSIHWSRNSVPTSQCSDPCAPNEMKNMQPGDVCCWICIPCEPYEYLVDEFTCMDCGPGQWPTADLSGCYNLPEDYIKWEDAWAIGPVTIACLGFLCTCIVITVFIKHNNTPLVKASGRELCYILLFGVSLSYCMTFFFIAKPSPVICALRRLGLGTSFAICYSALLTKTNCIARIFDGVKNGAQRPKFISPSSQVFICLGLILVQIVMVSVWLILETPGTRRYTLPEKRETVILKCNVKDSSMLISLTYDVVLVILCTVYAFKTRKCPENFNEAKFIGFTMYTTCIIWLAFLPIFYVTSSDYRVQTTTMCISVSLSGFVVLGCLFAPKVHIVLFQPQKNVVTHRLHLNRFSVSGTATTYSQSSASTYVPTVCNGREVLDSTTSSL
B2: HA-SNAP-mGluR2 [modified: SNAP tag labelled with BG-LD555 (BG-LD655 in two-colour SiMPull); SNAP tag labelled with BG-LD555 (BG-LD655 in two-colour SiMPull)] [rat] / itself (parent complex)
chain: EGPAKKVLTLEGDLVLGGLFPVHQKGGPAEECGPVNEHRGIQRLEAMLFALDRINRDPHLLPGVRLGAHILDSCSKDTHALEQALDFVRASLSRGADGSRHICPDGSYATHSDAPTAVTGVIGGSYSDVSIQVANLLRLFQIPQISYASTSAKLSDKSRYDYFARTVPPDFFQAKAMAEILRFFNWTYVSTVASEGDYGETGIEAFELEARARNICVATSEKVGRAMSRAAFEGVVRALLQKPSARVAVLFTRSEDARELLAATQRLNASFTWVASDGWGALESVVAGSERAAEGAITIELASYPISDFASYFQSLDPWNNSRNPWFREFWEERFHCSFRQRDCAAHSLRAVPFEQESKIMFVVNAVYAMAHALHNMHRALCPNTTHLCDAMRPVNGRRLYKDFVLNVKFDAPFRPADTDDEVRFDRFGDGIGRYNIFTYLRAGSGRYRYQKVGYWAEGLTLDTSFIPWASPSAGPLPASRCSEPCLQNEVKSVQPGEVCCWLCIPCQPYEYRLDEFTCADCGLGYWPNASLTGCFELPQEYIRWGDAWAVGPVTIACLGALATLFVLGVFVRHNATPVVKASGRELCYILLGGVFLCYCMTFVFIAKPSTAVCTLRRLGLGTAFSVCYSALLTKTNRIARIFGGAREGAQRPRFISPASQVAICLALISGQLLIVAAWLVVEAPGTGKETAPERREVVTLRCNHRDASMLGSLAYNVLLIALCTLYAFKTRKCPENFNEAKFIGFTMYTTCIIWLAFLPIFYVTSSDYRVQTTTMCVSVSLSGSVVLGCLFAPKLHIILFQPQKNVVSHRAPTSRFGSAAPRASANLGQGSGSQFVPTVCNGREVVDSTTSSL

In the first assay the parent is B1. In words: SiMPull; SNAP-tagged constructs labeled with LD555; 6 movies; read off a plot.
Regarding chain 1 S664A, chain 1 F668A, chain 1 G672A, the screen value is around 74%.

A further assay covers variants of B2. Briefly: SiMPull; shaded bar, data repeated from Figure 1F; read off a plot.
chain 1 C103A: the screen value was around 91%.
